Results as given in PMC3558595 (Integrative biology : quantitative biosciences from nano to …, 2013).

Biological target: the molecule itself
Test: FRET or BRET

B1: Wzm, transmembrane protein of the A-band polysaccharide ABC transporter of Pseudomonas aeruginosa, fused to GFP2 or YFP (natural protein, Pseudomonas aeruginosa PAO1, UniProt Q9HTB8 1-265, looked up)
chain: MLLGLSRSLWGYRGFVLGSVKREFQSRYRGSLFGALWTVLNPLSMIVVYTVIFSQVMRARLPGVDDGLAYSVYLCAGLLTWGLFAEITSRSQSMFIENANLLKKISFPRICLPVIVLLNAGVNFAIILALFLGFLALSGRLPGAALLALVPLLAIQVLFAAGLGMILGVLNVFFRDVGQLFGICLQFWFWLTPIVYPIGILPEGIRSLIELNPMTALMRSYQQLFLHGQWPDWPSLLPITLLALLLCALGLRLFRQRVGEMVDEL
stoichiometry N: 4
